Kd data for 1 molecule are collected here from paper PMC4627090, “Slicer-independent mechanism drives small-RNA strand separation during human RISC assembly”.

For this data set, the target named is recombinant human AGO2 (rhAGO2) (Homo sapiens, UniProt Q9UKV8 1-859). The experiment in a line: EMSA; 25 C; EMSA: 10 mM HEPES-KOH pH 7.4, 50 mM KCl, 1 mM DTT, 3% Ficoll-400, 0.1 mg/ml BSA, 10 nM RNA, 0-200 nM hAGO2, 30 min at 25 or 37 C, 6% native gel at 4 C; RISC assembly in HEK293T lysate at 0.75-3.75 mM Mg2+, 25 or 37 C. The note with it: protein: recombinant; tags: N-terminal FLAG and His; label: 32P; single strand. (In general: Mobility shift assays separate free from complexed probe on a gel.)
recombinant human AGO2 (rhAGO2), sequence (Q9UKV8 whole entry): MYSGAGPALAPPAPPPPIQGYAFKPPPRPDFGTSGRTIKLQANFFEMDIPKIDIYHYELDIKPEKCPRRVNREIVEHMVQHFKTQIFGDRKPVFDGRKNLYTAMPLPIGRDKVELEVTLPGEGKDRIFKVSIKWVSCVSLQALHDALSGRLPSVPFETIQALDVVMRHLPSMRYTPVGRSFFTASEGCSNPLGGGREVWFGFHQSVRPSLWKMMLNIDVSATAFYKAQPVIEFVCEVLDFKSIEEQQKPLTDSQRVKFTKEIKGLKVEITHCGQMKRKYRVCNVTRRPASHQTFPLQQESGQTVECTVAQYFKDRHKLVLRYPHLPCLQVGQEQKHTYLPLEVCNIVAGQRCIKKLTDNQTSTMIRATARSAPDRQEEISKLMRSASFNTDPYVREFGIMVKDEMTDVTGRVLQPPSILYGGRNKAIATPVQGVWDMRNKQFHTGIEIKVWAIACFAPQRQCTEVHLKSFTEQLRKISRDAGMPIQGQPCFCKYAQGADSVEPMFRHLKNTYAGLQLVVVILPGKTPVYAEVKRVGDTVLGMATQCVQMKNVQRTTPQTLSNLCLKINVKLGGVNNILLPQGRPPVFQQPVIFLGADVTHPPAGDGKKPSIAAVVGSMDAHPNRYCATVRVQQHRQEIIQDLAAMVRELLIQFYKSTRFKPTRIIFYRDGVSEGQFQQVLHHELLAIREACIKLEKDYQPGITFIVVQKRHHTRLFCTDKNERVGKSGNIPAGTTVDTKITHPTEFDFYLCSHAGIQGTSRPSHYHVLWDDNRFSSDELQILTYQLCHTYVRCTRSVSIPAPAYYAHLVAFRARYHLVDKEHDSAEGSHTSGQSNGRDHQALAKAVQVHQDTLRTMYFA

UGGAAUGUAAAGAAGUAUGUA (ssRNA) [miR-1 guide ssRNA]: the Kd was around 0.0444 µM.

The term Kd denotes the free concentration of one partner at which half of the binding sites on the other are occupied at equilibrium, for simple one-to-one binding.
